The results in this text go back to paper PMC10801861, “Elf1 promotes Rad26’s interaction with lesion-arrested Pol II for transcription-coupled repair” (Proceedings of the National Academy of Sciences of the …, 2024).

First the molecules themselves.
B1: Rad26 (wild type) (enzyme, S. cerevisiae)
chain: MEDKEQQDNAKLENNESLKDLGVNVLSQSSLEEKIANDVTNFSNLQSLQQEETRLERSKTALQRYVNKKNHLTRKLNNTTRISVKQNLRDQIKNLQSDDIERVLKDIDDIQSRIKELKEQVDQGAENKGSKEGLQRPGETEKEFLIRTGKITAFGHKAGFSLDTANREYAKNDEQKDEDFEMATEQMVENLTDEDDNLSDQDYQMSGKESEDDEEEENDDKILKELEDLRFRGQPGEAKDDGDELYYQERLKKWVKQRSCGSQRSSDLPEWRRPHPNIPDAKLNSQFKIPGEIYSLLFNYQKTCVQWLYELYQQNCGGIIGDEMGLGKTIQVIAFIAALHHSGLLTGPVLIVCPATVMKQWCNEFQHWWPPLRTVILHSMGSGMASDQKFKMDENDLENLIMNSKPSDFSYEDWKNSTRTKKALESSYHLDKLIDKVVTDGHILITTYVGLRIHSDKLLKVKWQYAVLDEGHKIRNPDSEISLTCKKLKTHNRIILSGTPIQNNLTELWSLFDFIFPGKLGTLPVFQQQFVIPINIGGYANATNIQVQTGYKCAVALRDLISPYLLRRVKADVAKDLPQKKEMVLFCKLTKYQRSKYLEFLHSSDLNQIQNGKRNVLFGIDILRKICNHPDLLDRDTKRHNPDYGDPKRSGKMQVVKQLLLLWHKQGYKALLFTQSRQMLDILEEFISTKDPDLSHLNYLRMDGTTNIKGRQSLVDRFNNESFDVFLLTTRVGGLGVNLTGANRIIIFDPDWNPSTDMQARERAWRIGQKREVSIYRLMVGGSIEEKIYHRQIFKQFLTNRILTDPKQKRFFKIHELHDLFSLGGENGYSTEELNEEVQKHTENLKNSKSEESDDFEQLVNLSGVSKLESFYNGKEKKENSKTEDDRLIEGLLGGESNLETVMSHDSVVNSHAGSSSSNIITKEASRVAIEAVNALRKSRKKITKQYEIGTPTWTGRFGKAGKIRKRDPLKNKLTGSAAILGNITKSQKEASKEARQENYDDGITFARSKEINSNTKTLENIRAYLQKQNNFFSSSVSILNSIGVSLSDKEDVIKVRALLKTIAQFDKERKGWVLDEEFRNNNAS
notes: Rad26, S. cerevisiae ortholog of human CSB, Swi2/Snf2 family ATPase; also called Rad26(WT); yeast ortholog of CSB; source: E. coli Rosetta 2(DE3), purified (Ni-NTA agarose, Hi-Trap Heparin HP, Superdex 200)
B2: Rpb4/7 heterodimer of S. cerevisiae RNA polymerase II (complex)
chain 1: MNVSTSTFQTRRRRLKKVEEEENAATLQLGQEFQLKQINHQGEEEELIALNLSEARLVIKEALVERRRAFKRSQKKHKKKHLKHENANDETTAVEDEDDDLDEDDVNADDDDFMHSETREKELESIDVLLEQTTGGNNKDLKNTMQYLTNFSRFRDQETVGAVIQLLKSTGLHPFEVAQLGSLACDTADEAKTLIPSLNNKISDDELERILKELSNLETLY
chain 2: MFFIKDLSLNITLHPSFFGPRMKQYLKTKLLEEVEGSCTGKFGYILCVLDYDNIDIQRGRILPTDGSAEFNVKYRAVVFKPFKGEVVDGTVVSCSQHGFEVQVGPMKVFVTKHLMPQDLTFNAGSNPPSYQSSEDVITIKSRIRVKIEGCISQVSSIHAIGSIKEDYLGAI
notes: Rpb4 subunit of S. cerevisiae RNA polymerase II; Rpb7 subunit of S. cerevisiae RNA polymerase II; In the structures it stood assembled into 12-subunit Pol II; also called Pol II stalk

Test [1] has as its target T1, Rpb1 subunit of S. cerevisiae RNA polymerase II (S. cerevisiae, UniProt P04050 1-1733).
T1 construct: Rpb1, largest subunit of S. cerevisiae RNA polymerase II, within the assembled polymerase; Seen only as a subunit of Pol II in the structures
In words: cryo-EM structure; Pol II(CPD)-Rad26 with 10-subunit Pol II lacking Rpb4/7, CPD lesion scaffold; 4.7 A. As to conditions: both partners purified.

Test [2] has as its target T2, Rpb2 subunit of S. cerevisiae RNA polymerase II (S. cerevisiae, UniProt P08518 1-1224).
T2 construct: Rpb2, second largest subunit of S. cerevisiae RNA polymerase II, within the assembled polymerase; Seen only as a subunit of Pol II in the structures
Described as above. Particulars: both partners purified.

Test [3] concerns the target S. cerevisiae 12-subunit RNA polymerase II (S. cerevisiae) (UniProt P04050). In words: mass photometry; 12-subunit CPD-arrested Pol II complex (EC, on DNA/RNA scaffold) mixed with an equimolar amount of Rad26, diluted to 5, 10, 15 and 25 nM, incubated 20 min; no Elf1; Kd from particle counts, 12 reads.
For test [4] the target is unchanged. In words: mass photometry; 12-subunit CPD-arrested Pol II complex (EC, on DNA/RNA scaffold) mixed with an equimolar amount of Rad26, diluted to 2, 5, 15 and 20 nM, with additional Elf1 (final 500 nM), incubated 20 min; Kd from particle counts, 12 reads.
The test “Rad26 (wild type)” has as its target B1. The test is described as follows: cryo-EM structure; Pol II(CPD)-Rad26-Elf1 (Closed state): Elf1 incubated with the Pol II(CPD)-Rad26 complex; 1 uM Pol II, 2 uM Rad26, 1.1 uM scaffold, 5 uM Elf1; 3.1 A. Particulars: both partners purified.

T2 sequence (P08518 whole entry): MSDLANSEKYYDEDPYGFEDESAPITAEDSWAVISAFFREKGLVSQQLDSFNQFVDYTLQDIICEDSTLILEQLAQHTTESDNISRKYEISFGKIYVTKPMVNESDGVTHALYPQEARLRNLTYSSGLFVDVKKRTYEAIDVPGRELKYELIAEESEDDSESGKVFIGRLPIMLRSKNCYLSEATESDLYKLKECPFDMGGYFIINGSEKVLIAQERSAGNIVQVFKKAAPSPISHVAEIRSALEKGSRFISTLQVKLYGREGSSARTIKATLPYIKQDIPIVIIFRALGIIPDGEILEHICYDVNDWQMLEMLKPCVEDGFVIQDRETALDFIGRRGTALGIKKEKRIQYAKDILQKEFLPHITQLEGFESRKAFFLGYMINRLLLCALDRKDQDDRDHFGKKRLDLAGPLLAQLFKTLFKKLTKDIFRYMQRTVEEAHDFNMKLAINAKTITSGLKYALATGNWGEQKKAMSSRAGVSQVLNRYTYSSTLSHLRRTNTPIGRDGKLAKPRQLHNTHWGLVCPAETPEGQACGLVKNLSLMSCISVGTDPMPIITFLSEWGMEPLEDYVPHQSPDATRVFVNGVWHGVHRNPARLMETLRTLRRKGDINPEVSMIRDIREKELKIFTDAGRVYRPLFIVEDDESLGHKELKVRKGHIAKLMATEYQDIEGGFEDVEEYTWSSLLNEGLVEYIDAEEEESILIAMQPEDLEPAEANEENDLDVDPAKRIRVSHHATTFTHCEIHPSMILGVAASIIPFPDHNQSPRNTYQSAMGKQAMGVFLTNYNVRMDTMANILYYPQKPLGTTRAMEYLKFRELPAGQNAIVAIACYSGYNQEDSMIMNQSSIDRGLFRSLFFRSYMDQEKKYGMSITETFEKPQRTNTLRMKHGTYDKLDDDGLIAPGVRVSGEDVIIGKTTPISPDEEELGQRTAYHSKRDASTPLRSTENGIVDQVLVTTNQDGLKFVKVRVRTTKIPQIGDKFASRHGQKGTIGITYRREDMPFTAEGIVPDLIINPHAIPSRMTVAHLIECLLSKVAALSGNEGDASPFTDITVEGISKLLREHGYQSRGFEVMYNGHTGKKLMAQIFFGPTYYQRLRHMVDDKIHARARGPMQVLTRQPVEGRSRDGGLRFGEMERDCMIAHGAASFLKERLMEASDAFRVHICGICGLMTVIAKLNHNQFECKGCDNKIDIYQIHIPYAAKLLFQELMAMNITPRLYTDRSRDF
T1 sequence (P04050 whole entry): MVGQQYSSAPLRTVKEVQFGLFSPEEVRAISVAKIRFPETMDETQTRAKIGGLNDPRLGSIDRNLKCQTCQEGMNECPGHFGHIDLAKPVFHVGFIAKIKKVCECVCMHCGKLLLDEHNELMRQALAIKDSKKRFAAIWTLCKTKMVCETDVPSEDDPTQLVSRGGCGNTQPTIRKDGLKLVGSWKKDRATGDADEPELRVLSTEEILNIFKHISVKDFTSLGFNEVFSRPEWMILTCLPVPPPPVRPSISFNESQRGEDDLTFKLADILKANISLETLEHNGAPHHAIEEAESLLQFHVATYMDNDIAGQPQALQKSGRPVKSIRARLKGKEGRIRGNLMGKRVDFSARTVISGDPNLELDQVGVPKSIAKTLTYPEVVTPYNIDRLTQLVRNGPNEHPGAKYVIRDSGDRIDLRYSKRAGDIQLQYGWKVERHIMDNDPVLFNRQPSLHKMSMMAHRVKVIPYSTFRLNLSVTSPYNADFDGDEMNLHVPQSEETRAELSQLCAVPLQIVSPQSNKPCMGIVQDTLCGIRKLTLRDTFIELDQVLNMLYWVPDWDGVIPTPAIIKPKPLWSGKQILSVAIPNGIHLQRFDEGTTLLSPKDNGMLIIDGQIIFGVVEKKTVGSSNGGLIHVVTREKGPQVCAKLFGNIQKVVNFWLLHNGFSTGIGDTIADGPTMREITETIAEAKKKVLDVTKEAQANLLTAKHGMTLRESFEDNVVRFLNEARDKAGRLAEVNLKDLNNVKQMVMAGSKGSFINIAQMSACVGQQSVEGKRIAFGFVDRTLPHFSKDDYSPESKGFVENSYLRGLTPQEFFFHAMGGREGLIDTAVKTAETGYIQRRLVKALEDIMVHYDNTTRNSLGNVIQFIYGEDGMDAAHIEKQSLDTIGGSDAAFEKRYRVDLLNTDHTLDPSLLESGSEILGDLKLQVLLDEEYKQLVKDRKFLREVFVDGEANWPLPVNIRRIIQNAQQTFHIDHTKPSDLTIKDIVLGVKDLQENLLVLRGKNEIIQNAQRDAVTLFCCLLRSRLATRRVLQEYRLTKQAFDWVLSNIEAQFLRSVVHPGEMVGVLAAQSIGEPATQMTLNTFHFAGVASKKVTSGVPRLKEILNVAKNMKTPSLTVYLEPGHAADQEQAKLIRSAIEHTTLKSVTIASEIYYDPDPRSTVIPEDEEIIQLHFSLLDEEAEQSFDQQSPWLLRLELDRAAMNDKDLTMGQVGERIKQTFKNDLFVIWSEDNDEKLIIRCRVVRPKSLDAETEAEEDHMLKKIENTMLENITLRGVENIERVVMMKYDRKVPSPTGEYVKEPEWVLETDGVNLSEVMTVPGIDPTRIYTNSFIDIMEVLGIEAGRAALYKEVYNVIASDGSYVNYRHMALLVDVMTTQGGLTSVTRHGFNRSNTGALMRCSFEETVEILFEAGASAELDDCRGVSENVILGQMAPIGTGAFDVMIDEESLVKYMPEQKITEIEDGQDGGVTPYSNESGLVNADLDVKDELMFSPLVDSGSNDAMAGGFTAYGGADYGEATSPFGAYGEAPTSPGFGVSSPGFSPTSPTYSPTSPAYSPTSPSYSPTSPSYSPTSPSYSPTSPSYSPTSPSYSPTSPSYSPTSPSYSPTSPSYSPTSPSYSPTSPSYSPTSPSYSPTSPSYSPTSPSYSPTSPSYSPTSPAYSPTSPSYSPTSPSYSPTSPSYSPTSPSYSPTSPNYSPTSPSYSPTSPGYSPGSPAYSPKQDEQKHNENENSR

Turning to B1, the binding result in test [1] and in test [2] was “binds” in each case. The Kd in test [3] was 23 nM; in test [4], 9 nM.

Regarding B2, in the test with Rad26 (wild type), the binding result is given as “binds”.

One may read the Kd as the equilibrium constant for the complex coming apart.
